How the values were obtained:
Conditions in all cases: remark: other sources report otherwise
[1] = biological target: recombinant homotrimeric HA A/Wisconsin/67/05 H3N2 (Influenza A virus A/Wisconsin/67/2005(H3N2)); experiment: protein microarray, purified IgG, trimeric HA
[2] = biological target: recombinant homotrimeric HA A/Egypt/3300-NAMRU3/08 H5N1 (Influenza A virus A/Egypt/3300-NAMRU3/2008(H5N1)); experiment: protein microarray, purified IgG, trimeric HA
[3] = biological target: recombinant homotrimeric HA A/South Carolina/1/18 H1N1 (Influenza A virus A/South Carolina/1/18 (H1N1)); experiment: protein microarray, purified IgG, trimeric HA
[4] = biological target: recombinant homotrimeric HA A/Hong Kong/156/97 H5N1 (Influenza A virus A/Hong Kong/156/97 (H5N1)); experiment: protein microarray, purified IgG, trimeric HA
[5] = biological target: recombinant homotrimeric HA A/Vietnam/1203/04 H5N1 (Influenza A virus A/VietNam/1203/2004(H5N1)); experiment: protein microarray, purified IgG, trimeric HA
[6] = biological target: recombinant homotrimeric HA A/Netherlands/219/03 H7N7 (Influenza A virus A/Netherlands/219/03(H7N7)); experiment: protein microarray, purified IgG, trimeric HA
[7] = biological target: recombinant homotrimeric HA A/Hong Kong/2108/03 H9N2 (Influenza A virus A/HK/2108/2003(H9N2)); experiment: protein microarray, purified IgG, trimeric HA
[8] = biological target: recombinant homotrimeric HA A/California/4/09 H1N1 (Influenza A virus A/California/04/2009(H1N1)); experiment: protein microarray, purified IgG, trimeric HA
[9] = biological target: recombinant homotrimeric HA A/Japan/305/57 H2N2 (Influenza A virus A/Japan/305/1957(H2N2)); experiment: protein microarray, purified IgG, trimeric HA
[10] = biological target: T1, recombinant soluble homotrimeric HA of A/Vietnam/1203/04 (H5N1) (Influenza A virus A/VietNam/1203/2004(H5N1)); experiment: HA microarray, BCC supernatant
[11] = biological target: T2, recombinant soluble homotrimeric HA of A/California/4/09 (H1N1) (Influenza A virus A/California/04/2009(H1N1)); experiment: HA microarray, BCC supernatant
[12] = biological target: T3, recombinant soluble homotrimeric HA of A/Egypt/3300-NAMRU3/08 (H5N1) (Influenza A virus A/Egypt/3300-NAMRU3/2008(H5N1)); experiment: HA microarray, BCC supernatant
[13] = biological target: T4, recombinant soluble homotrimeric HA of A/chicken/Vietnam/NCVD-016/08 (H5N1) (Influenza A virus A/chicken/Vietnam/NCVD-016/2008(H5N1)); experiment: HA microarray, BCC supernatant
[14] = biological target: recombinant soluble homotrimeric HA of A/Anhui/1/05 (H5N1) (Influenza A virus A/Anhui/1/2005(H5N1)); experiment: HA microarray, BCC supernatant
[15] = biological target: T5, recombinant soluble homotrimeric HA of A/Japan/305/57 (H2N2) (Influenza A virus A/Japan/305/1957(H2N2)); experiment: HA microarray, BCC supernatant
[16] = biological target: T6, recombinant soluble homotrimeric HA of A/northern shoveler/California/HKWF115/07 (H6) (Influenza A virus A/northern shoveler/California/HKWF115/2007(H6N1)); experiment: HA microarray, BCC supernatant
[17] = biological target: T7, recombinant soluble homotrimeric HA of A/Wisconsin/67/05 (H3N2) (Influenza A virus A/Wisconsin/67/2005(H3N2)); experiment: HA microarray, BCC supernatant
[18] = biological target: recombinant soluble homotrimeric HA of A/Hong Kong/2108/03 (H9N2) (Influenza A virus A/HK/2108/2003(H9N2)); experiment: HA microarray, BCC supernatant
[19] = biological target: T8, recombinant soluble homotrimeric HA of A/Netherlands/219/03 (H7N7) (Influenza A virus A/Netherlands/219/03(H7N7)); experiment: HA microarray, BCC supernatant
[20] = biological target: T9, recombinant soluble homotrimeric HA of A/duck/Yangzhou/02/05 (H8N4) (Influenza A virus A/duck/Yangzhou/02/2005(H8N4)); experiment: HA microarray, BCC supernatant
[21] = biological target: T10, recombinant soluble homotrimeric HA of A/swine/Ontario/01911-2/99 (H4N6) (Influenza A virus A/Swine/Ontario/01911-2/99 (H4N6)); experiment: HA microarray, BCC supernatant
[22] = biological target: T11, recombinant soluble homotrimeric HA of A/Indonesia/5/05 (H5N1) (Influenza A virus A/Indonesia/5/2005(H5N1)); experiment: HA microarray, BCC supernatant
[23] = biological target: T1, recombinant soluble homotrimeric HA of …; experiment: trimeric HA microarray, transfection supernatant set 5
[24] = biological target: T2, recombinant soluble homotrimeric HA of …; experiment: as above
[25] = biological target: recombinant soluble homotrimeric HA of A/South Carolina/1/18 (H1N1) (Influenza A virus A/South Carolina/1/18 (H1N1)); experiment: as above
[26] = biological target: T3, recombinant soluble homotrimeric HA of …; experiment: as above
[27] = biological target: T4, recombinant soluble homotrimeric HA of …; experiment: as above
[28] = biological target: recombinant soluble homotrimeric HA of A/Hong Kong/156/97 (H5N1) (Influenza A virus A/Hong Kong/156/97 (H5N1)); experiment: as above
[29] = biological target: T5, recombinant soluble homotrimeric HA of …; experiment: as above
[30] = biological target: T7, recombinant soluble homotrimeric HA of …; experiment: as above
[31] = biological target: T8, recombinant soluble homotrimeric HA of …; experiment: as above
[32] = biological target: T9, recombinant soluble homotrimeric HA of …; experiment: as above
[33] = biological target: T10, recombinant soluble homotrimeric HA of …; experiment: as above
[34] = biological target: T11, recombinant soluble homotrimeric HA of …; experiment: as above
[35] = biological target: recombinant homotrimeric HA A/Hong Kong/1073/99 H9N2 (Influenza A virus A/Hong Kong/1073/99 (H9N2)); experiment: protein microarray, purified IgG, trimeric HA
[36] = biological target: recombinant homotrimeric HA A/northern shoveler/California/HKWF115/07 H6N4 (Influenza A virus A/northern shoveler/California/HKWF115/2007(H6N1)); experiment: protein microarray, purified IgG, trimeric HA
[37] = biological target: recombinant homotrimeric HA A/duck/Yangzhou/02/05 H8N4 (Influenza A virus A/duck/Yangzhou/02/2005(H8N4)); experiment: protein microarray, purified IgG, trimeric HA
[38] = biological target: recombinant homotrimeric HA A/chicken/Vietnam/NCVD-016/08 H5N1 (Influenza A virus A/chicken/Vietnam/NCVD-016/2008(H5N1)); experiment: protein microarray, purified IgG, trimeric HA
[39] = biological target: recombinant homotrimeric HA A/Solomon Islands/3/06 H1N1 (Influenza A virus A/Solomon Islands/3/2006(H1N1)); experiment: protein microarray, purified IgG, trimeric HA
[40] = biological target: recombinant homotrimeric HA A/swine/Ontario/01911-2/99 H4N6 (Influenza A virus A/Swine/Ontario/01911-2/99 (H4N6)); experiment: protein microarray, purified IgG, trimeric HA
[41] = biological target: T12, recombinant soluble homotrimeric HA of A/Solomon Islands/3/06 (H1N1) (Influenza A virus A/Solomon Islands/3/2006(H1N1)); experiment: HA microarray, BCC supernatant
[42] = biological target: T6, recombinant soluble homotrimeric HA of …; experiment: trimeric HA microarray, transfection supernatant set 5
[43] = biological target: T12, recombinant soluble homotrimeric HA of …; experiment: as above

Binder	Trimeric HA Binding: RLU [2] [RLU]	Trimeric HA Binding: RLU [3] [RLU]	Trimeric HA Binding: RLU [6] [RLU]	Trimeric HA Binding: RLU [7] [RLU]	Trimeric HA Binding: RLU [8] [RLU]	Trimeric HA Binding: RLU [9] [RLU]	Trimeric HA Binding: RLU [11] [RLU]	Trimeric HA Binding: RLU [13] [RLU]	Trimeric HA Binding: RLU [15] [RLU]	Trimeric HA Binding: RLU [16] [RLU]	Trimeric HA Binding: RLU [19] [RLU]	Trimeric HA Binding: RLU [20] [RLU]	Trimeric HA Binding: RLU [21] [RLU]	Trimeric HA Binding: RLU [24] [RLU]	Trimeric HA Binding: RLU [25] [RLU]	Trimeric HA Binding: RLU [26] [RLU]	Trimeric HA Binding: RLU [27] [RLU]	Trimeric HA Binding: RLU [29] [RLU]	Trimeric HA Binding: RLU [31] [RLU]	Trimeric HA Binding: RLU [32] [RLU]	further results
TCN-537 (3194_D21) (antibody, V domains shown) VH: QVQLQQWGSGLLKPSETLSLTCAVYGGSFRDDYWTWIRQPPGKGLEWIGEINHSGRTNYNPSLKSRVTISVDTSLKQFSLKVISVTAADTAVYYCARGTSHVSRYFDWLPPTNWFDPWGQGTQVTVSS VL: DIVLTQSPGTLSLSPGERATLSCRASQSVSSSYLAWYQQKPGQAPRLVMYGAATRATGIPDRFSGSGSGPDFTLTISRLEPEDFAMYYCQQYGNSPITFGQGTRLEIK	3190	2840	729	171	10200	19500	21900	8620	44700	5210	1050	7830	19	33800	46800	33500	4480	16200	3650	25500	Trimeric HA Binding: RLU [1]: 154 RLU; Trimeric HA Binding: RLU [4]: 862 RLU; Trimeric HA Binding: RLU [5]: 5690 RLU; Trimeric HA Binding: RLU [10]: 80 RLU; Trimeric HA Binding: RLU [12]: 38200 RLU; Trimeric HA Binding: RLU [14]: 335 RLU; Trimeric HA Binding: RLU [17]: 549 RLU; Trimeric HA Binding: RLU [18]: 147 RLU; Trimeric HA Binding: RLU [22]: 14900 RLU; Trimeric HA Binding: RLU [23]: 50300 RLU; Trimeric HA Binding: RLU [28]: 10700 RLU; Trimeric HA Binding: RLU [30]: 1940 RLU; Trimeric HA Binding: RLU [33]: 3280 RLU; Trimeric HA Binding: RLU [34]: 2420 RLU
TCN-544 (5082_A19) (antibody, V domains shown) VH: QVQLQESGPGLVKPSETLSLTCTVSRGSIGHYFWSWIRQPPGKGLEWIGYISYSGSTKYNPSLRSRVTISVDTSKNQFSLNLNSVTATDTALYYCAREDYDILTGAGPGMEVWGQGTTVTVSS VL: QSMLTQPPSASGTPGQRVTISCSGSSSNIGSNTVNWFKHLPGTAPKLLIYRNDLRPSGVPDRFSGSKSGTSASLAISGLQSEDEADYYCATWDDSLNGFYVFGTGTKVTVL	2140	148	203	145	285	450	281	272	187	1690	1620	464	316	706	1330	19400	3070	1000	4650	9440	Trimeric HA Binding: RLU [35]: 534 RLU; Trimeric HA Binding: RLU [36]: 82 RLU; Trimeric HA Binding: RLU [37]: 380 RLU; Trimeric HA Binding: RLU [38]: 402 RLU; Trimeric HA Binding: RLU [39]: 1010 RLU; Trimeric HA Binding: RLU [40]: 154 RLU; Trimeric HA Binding: RLU [41]: 179 RLU; Trimeric HA Binding: RLU [42]: 2920 RLU; Trimeric HA Binding: RLU [43]: 997 RLU; Trimeric HA Binding: RLU [33]: 2390 RLU
